Reference: PMC5940917

Legend:
[1] = target: rat ASIC1a/2a heteromeric channel stably expressed in CHO cells (rat) (UniProt P55926)
[2] = target: rat ASIC1a/2a heteromeric channel stably expressed in CHO cells (rat) (UniProt P55926); remark: listed apart in the source
[3] = target: rat ASIC1a/2a heteromeric channel stably expressed in CHO cells (rat) (UniProt P55926); remark: listed apart in the source

Sequence of UniProt P55926 (P55926 whole entry, chain 1 of 2): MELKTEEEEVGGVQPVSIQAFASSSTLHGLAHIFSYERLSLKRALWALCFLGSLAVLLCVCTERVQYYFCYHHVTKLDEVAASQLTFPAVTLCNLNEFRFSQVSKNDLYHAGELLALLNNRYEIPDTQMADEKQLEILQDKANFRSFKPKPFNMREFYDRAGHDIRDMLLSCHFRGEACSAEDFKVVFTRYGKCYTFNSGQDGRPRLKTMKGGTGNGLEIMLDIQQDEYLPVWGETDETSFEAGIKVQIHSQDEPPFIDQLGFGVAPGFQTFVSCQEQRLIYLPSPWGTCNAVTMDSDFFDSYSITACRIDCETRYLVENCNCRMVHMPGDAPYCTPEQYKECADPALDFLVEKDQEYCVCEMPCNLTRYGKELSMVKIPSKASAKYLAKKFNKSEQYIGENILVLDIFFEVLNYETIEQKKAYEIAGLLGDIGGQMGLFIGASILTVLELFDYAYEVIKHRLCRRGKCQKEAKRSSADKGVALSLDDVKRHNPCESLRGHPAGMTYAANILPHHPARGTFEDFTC
Sequence of UniProt P55926 (P55926 other isoform, or with tags, fused parts or gaps, chain 2 of 2): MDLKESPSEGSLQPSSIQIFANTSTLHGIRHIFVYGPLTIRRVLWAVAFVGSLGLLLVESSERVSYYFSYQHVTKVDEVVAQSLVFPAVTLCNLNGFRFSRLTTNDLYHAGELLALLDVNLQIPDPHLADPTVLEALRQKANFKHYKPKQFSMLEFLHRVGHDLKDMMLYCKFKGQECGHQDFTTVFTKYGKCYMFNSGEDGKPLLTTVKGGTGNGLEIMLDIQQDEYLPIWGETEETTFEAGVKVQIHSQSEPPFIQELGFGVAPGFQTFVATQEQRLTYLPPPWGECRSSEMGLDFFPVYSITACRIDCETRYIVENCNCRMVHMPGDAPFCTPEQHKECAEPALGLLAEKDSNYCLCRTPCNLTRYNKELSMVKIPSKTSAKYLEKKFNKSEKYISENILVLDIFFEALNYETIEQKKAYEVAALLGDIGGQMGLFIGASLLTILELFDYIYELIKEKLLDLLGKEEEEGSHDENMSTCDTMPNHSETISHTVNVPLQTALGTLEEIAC

**Q.** What does the source list for “Psalmotoxin (PcTx1) (from UniProt P60514 1-40) (peptide)”?
**A.** current clamp on CHO cells: potentiation of pH6.8-induced membrane depolarization at conditioning pH 7.4, 1-300 nM PcTx1 [1]: 56.1 nM; whole-cell patch clamp on CHO cells: potentiation of pH6.8-induced current at conditioning pH 7.4, 1-300 nM PcTx1 [1]: 124 nM; threshold concentration of PcTx1 for potentiation of pH6.8-induced responses at conditioning pH 7.4 (wash-off experiments; CHO cells, rat and mouse cortical neurons) [2]: < 10 nM; whole-cell patch clamp on CHO cells: inhibition of pH6.0-induced current at conditioning pH 7.0, 1-300 nM PcTx1 (inhibition incomplete, plateau ~75%) [3]: 2.9 nM
